The record followed here is patent US20100028347A1.

A word on the EC50 (read off the curve): it is the concentration at which the effect is half-maximal. High values mean weaker potency, low ones greater potency.

In test [1] the target is native VEGFR-1 expressed on the cell surface (human) (UniProt P17948). Briefly: flow cytometry on PAE-VEGFR-1 cells, FITC goat anti-human IgG.
The next test has as its target mouse VEGFR-1-AP (mouse) (UniProt P35969). The experiment in a line: ELISA: plate coated with mouse VEGFR-1-AP 100 ng/well, goat anti-rat IgG-HRP, O.D. 450. Background: ELISA stands for enzyme-linked immunosorbent assay.
The target in a further test is mouse VEGFR-1 Fc (mouse) (UniProt P35969). Briefly: ELISA: antibody dilutions on plate coated with 1 µg/ml mouse VEGFR-1 Fc, HRP secondary, O.D. 450.
Sequence of mouse VEGFR-1 Fc (mouse) (P35969 23-759 limits assumed): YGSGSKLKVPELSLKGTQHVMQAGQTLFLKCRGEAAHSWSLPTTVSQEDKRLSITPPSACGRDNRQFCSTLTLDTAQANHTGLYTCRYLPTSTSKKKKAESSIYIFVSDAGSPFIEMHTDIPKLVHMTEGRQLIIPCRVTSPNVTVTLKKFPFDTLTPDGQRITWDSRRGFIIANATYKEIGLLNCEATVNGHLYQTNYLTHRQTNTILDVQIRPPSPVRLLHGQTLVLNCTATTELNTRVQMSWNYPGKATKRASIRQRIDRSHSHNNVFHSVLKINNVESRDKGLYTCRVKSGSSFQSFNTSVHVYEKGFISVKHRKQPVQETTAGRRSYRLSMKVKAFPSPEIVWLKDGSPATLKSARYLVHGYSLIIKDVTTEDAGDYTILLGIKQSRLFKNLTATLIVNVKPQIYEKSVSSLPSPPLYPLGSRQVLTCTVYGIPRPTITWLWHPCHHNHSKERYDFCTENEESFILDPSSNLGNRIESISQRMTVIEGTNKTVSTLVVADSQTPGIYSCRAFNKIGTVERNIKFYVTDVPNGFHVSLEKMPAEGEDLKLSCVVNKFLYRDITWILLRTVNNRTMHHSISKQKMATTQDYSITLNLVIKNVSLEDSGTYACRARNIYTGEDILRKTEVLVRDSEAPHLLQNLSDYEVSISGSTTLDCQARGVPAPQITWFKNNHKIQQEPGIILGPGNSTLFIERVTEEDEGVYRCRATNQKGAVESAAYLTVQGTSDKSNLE
Test [2] has as its target human VEGFR-2 alkaline phosphatase (human) (UniProt P35968). Briefly: ELISA: plate coated with huVEGFR-2-AP 100 ng/well, goat anti-human kappa-HRP, O.D. 450.
The target is the same in test [3]. Briefly: ELISA: antibody dilutions on plate coated with 1 µg/ml human VEGFR-2 alkaline phosphatase, HRP secondary, O.D. 450.

Sequence of human VEGFR-2 alkaline phosphatase (human) (P35968 20-764): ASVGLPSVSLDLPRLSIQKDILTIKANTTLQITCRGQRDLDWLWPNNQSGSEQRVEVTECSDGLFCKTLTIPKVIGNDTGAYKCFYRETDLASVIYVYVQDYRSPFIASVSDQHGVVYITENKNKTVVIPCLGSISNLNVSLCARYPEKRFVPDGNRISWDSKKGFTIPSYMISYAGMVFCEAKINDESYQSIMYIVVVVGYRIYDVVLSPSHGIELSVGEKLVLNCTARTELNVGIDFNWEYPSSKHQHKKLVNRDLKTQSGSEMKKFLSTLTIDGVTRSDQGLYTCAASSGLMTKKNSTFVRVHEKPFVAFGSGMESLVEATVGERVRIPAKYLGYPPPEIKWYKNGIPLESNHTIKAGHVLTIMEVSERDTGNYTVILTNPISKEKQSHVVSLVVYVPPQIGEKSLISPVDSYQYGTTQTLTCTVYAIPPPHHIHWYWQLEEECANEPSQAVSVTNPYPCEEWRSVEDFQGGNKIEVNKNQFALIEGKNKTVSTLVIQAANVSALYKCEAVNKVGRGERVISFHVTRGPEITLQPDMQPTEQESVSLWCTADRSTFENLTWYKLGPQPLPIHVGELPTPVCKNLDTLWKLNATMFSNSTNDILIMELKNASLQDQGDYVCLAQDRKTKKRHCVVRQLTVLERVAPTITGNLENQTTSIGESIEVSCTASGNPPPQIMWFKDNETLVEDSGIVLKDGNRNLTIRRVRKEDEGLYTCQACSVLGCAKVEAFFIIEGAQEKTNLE
Sequence of mouse VEGFR-1-AP (mouse) (P35969 23-759): as the sequence (P35969 23-759 limits assumed) above
Sequence of native VEGFR-1 expressed on the cell surface (human) (P17948 27-1338): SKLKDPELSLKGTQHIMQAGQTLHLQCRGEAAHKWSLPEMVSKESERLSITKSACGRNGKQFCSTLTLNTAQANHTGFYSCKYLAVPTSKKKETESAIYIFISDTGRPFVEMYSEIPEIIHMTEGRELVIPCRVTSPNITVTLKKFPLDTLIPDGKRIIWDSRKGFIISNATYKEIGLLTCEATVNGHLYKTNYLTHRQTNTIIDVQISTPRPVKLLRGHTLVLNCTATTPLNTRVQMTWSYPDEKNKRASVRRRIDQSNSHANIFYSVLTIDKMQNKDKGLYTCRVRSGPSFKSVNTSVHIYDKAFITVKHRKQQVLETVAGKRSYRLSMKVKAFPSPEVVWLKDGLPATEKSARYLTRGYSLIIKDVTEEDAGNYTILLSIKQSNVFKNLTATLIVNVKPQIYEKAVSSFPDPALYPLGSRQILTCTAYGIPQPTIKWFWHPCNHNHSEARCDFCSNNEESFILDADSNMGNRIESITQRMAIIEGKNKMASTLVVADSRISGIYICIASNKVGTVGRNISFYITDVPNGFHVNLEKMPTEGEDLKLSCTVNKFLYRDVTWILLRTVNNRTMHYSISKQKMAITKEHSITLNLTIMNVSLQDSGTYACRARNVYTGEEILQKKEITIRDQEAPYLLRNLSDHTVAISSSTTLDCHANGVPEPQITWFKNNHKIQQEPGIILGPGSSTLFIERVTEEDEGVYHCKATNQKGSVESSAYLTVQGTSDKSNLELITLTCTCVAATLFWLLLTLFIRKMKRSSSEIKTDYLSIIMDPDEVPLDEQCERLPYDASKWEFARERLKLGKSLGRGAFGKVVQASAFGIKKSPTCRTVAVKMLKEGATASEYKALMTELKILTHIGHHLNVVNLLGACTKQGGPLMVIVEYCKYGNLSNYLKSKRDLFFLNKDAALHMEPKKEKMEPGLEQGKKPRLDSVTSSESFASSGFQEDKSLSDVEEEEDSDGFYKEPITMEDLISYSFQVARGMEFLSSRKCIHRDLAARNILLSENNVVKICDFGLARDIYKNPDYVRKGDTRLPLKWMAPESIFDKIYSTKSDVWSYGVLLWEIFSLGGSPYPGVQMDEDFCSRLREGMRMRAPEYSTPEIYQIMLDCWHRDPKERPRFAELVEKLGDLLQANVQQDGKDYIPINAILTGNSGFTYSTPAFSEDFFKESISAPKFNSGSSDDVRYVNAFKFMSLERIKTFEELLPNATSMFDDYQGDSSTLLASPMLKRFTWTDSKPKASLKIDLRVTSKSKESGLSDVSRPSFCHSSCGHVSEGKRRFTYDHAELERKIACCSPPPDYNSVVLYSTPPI

Turning to Control IgG (antibody), in test [1], the MFI was 2.6.
Regarding rat anti-mouse VEGFR-1 antibody MF1, the half-maximal effective concentration (EC50 (read off the curve)) with mouse VEGFR-1-AP (mouse) and in the test with mouse VEGFR-1 Fc (mouse) was 0.8 ng/mL each time.
For 1C11 (antibody), the EC50 (read off the curve) in test [2] and in test [3] was 8 ng/mL in each case.
